In patent publication US20150276749A1 (KONICA MINOLTA, published 2015):

How the values were obtained:
[1] = target: T1, soluble-type human DSG3-mouse IgG2aFc fusion protein (human; mouse, UniProt P32926 50-616); assay: sandwich ELISA, luminescence over blank; immobilized DF151, detection DF151; antigen 1000 pg/mL
T1 construct: also called human desmoglein 3; desmoglein 3 standard; not shown: mouse IgG2a Fc, printed 'mouse IgG2aFc' and 'mouse IgG2 constant region'
T1 sequence: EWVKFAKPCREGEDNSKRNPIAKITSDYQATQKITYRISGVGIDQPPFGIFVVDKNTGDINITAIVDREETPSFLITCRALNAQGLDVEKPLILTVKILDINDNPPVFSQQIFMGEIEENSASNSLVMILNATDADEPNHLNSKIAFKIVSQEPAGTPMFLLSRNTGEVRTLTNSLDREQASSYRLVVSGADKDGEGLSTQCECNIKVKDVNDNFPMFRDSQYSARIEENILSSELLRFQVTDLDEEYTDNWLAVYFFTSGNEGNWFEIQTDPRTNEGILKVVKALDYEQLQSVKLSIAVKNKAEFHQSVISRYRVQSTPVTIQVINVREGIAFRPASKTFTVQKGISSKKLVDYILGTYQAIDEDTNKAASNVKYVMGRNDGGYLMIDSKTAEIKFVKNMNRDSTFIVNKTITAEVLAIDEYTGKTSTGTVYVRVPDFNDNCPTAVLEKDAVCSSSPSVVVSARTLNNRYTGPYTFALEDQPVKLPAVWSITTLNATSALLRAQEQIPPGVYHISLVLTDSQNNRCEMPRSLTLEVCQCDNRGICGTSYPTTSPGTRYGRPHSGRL
Procedure: (§1) Subsequently, the antigen solutions having the above-described concentrations were each added to the plate in an amount of 50 μL/well, and the plate was incubated at room temperature for 1 hour. Then, the antigen solution was removed, and the plate was washed with 0.05% Tween 20-PBS three times. Thereafter, the 1-μg/mL biotinylated antibody solution was added in an amount of 50 μL/well, and the plate was incubated at room temperature for 1 hour.
(§2) Then, after removing the streptavidin-HRP solution and washing the plate with 0.05% Tween 20-PBS three times, a substrate solution (SuperSignal ELISA Femto Maximum Sensitivity Substrate (registered trademark); Pierce Biotechnology, Inc.) was added in an amount of 100 μL/well. One minute thereafter, the luminescence intensity was measured using a luminometer, Fluoroskan Ascent FL (trade name, Thermo Electron Corporation).
(§3) The numerical values shown in Table 1 represent the minimum values of the antigen solution concentration having an S/N ratio of higher than 2 (hereinafter, referred to as “detection limit concentration”) and the unit of the numerical values is pg/mL. The S/N ratio was determined by dividing the luminescence intensity at the respective antigen solution concentrations ([…]) by the luminescence intensity of an antigen-free blank antigen solution (0 μg/mL).

[2] = target: T1, soluble-type human DSG3-mouse IgG2aFc …; assay: sandwich ELISA, luminescence over blank; immobilized DF151, detection D219-3; antigen 1000 pg/mL
Procedure: as §1, §2, §3

[3] = target: T1, soluble-type human DSG3-mouse IgG2aFc …; assay: sandwich ELISA, luminescence over blank; immobilized DF151, detection D219-3; antigen 25000 pg/mL
Procedure: as §1, §2, §3

[4] = target: T1, soluble-type human DSG3-mouse IgG2aFc …; assay: sandwich ELISA, luminescence over blank; immobilized DF151, detection D219-3; antigen 1 pg/mL
Procedure: as §1, §2
(§4) The numerical values shown in Table 1 represent the minimum values of the antigen solution concentration having an S/N ratio of higher than 2 (hereinafter, referred to as “detection limit concentration”) and the unit of the numerical values is pg/mL. […]

[5] = target: T1, soluble-type human DSG3-mouse IgG2aFc …; assay: sandwich ELISA, luminescence over blank; immobilized DF151, detection MAB1720; antigen 1000 pg/mL
Procedure: as §1, §2, §3

[6] = target: T1, soluble-type human DSG3-mouse IgG2aFc …; assay: sandwich ELISA, luminescence over blank; immobilized DF151, detection MAB1720; antigen 40 pg/mL
Procedure: as §1, §2, §3

[7] = target: T1, soluble-type human DSG3-mouse IgG2aFc …; assay: sandwich ELISA, luminescence over blank; immobilized DF151, detection DF151; antigen 25000 pg/mL
Procedure: as §1, §2, §3

[8] = target: T1, soluble-type human DSG3-mouse IgG2aFc …; assay: sandwich ELISA, luminescence over blank; immobilized DF151, detection DF151; antigen 10 pg/mL
Procedure: as §1, §2, §4

[9] = target: T1, soluble-type human DSG3-mouse IgG2aFc …; assay: sandwich ELISA, luminescence over blank; immobilized DF151, detection D219-3; antigen 5000 pg/mL
Procedure: as §1, §2, §3

[10] = target: T1, soluble-type human DSG3-mouse IgG2aFc …; assay: sandwich ELISA, luminescence over blank; immobilized DF151, detection MAB1720; antigen 200 pg/mL
Procedure: as §1, §2, §3

[11] = target: T1, soluble-type human DSG3-mouse IgG2aFc …; assay: sandwich ELISA, luminescence over blank; immobilized DF151, detection DF151; antigen 200 pg/mL
Procedure: as §1, §2, §3

[12] = target: T1, soluble-type human DSG3-mouse IgG2aFc …; assay: sandwich ELISA, luminescence over blank; immobilized DF151, detection MAB1720; antigen 25000 pg/mL
Procedure: as §1, §2, §3

B1: DF151 (DF151[I] antibody) (antibody, mouse IgG2b, kappa, V domains shown)
VH: EVQLQQSGPELVKPGASVKISCKASGYSFTAYYMHWVKQSPEKCLEWIGQINPSTGGTTYNQKFKAKATLTVDKSSSTAYMQLKSLTSEDSAVYYCARWGDSWGQGTTLTVSS
VL: DIVLTQSPASLAVSLGQSVTISCRASESVEYYGTSLMQWYQQKPGQPPKLLIYGASDVESGVPARFSGSGSGTDFSLNIHPVEEDDIAMYFCQQSRKVPYTFGSGTKLEIKR
notes: Complete antibody; Biotinylated as detection antibody in ELISA; labeled with Alexa Fluor 647 as detection antibody in SPFS; also called DF151 antibody
**Q.** With B1 as the binder, how does the S/N ratio [1] read?
**A.** 2.8

**Q.** And the S/N ratio [2]?
**A.** 2.3

**Q.** What about the S/N ratio [3] of the same binder?
**A.** 50.3

**Q.** What about the S/N ratio [4] of the same binder?
**A.** 0.8

**Q.** What about the S/N ratio [5] of the same binder?
**A.** 4.1

**Q.** And the S/N ratio [6]?
**A.** 1.1

**Q.** And the S/N ratio [7]?
**A.** 55.2

**Q.** And the S/N ratio [8]?
**A.** 0.9

**Q.** What about the S/N ratio [9] of the same binder?
**A.** 9.2

**Q.** And the S/N ratio [10]?
**A.** 1.6

**Q.** What about the S/N ratio [11] of the same binder?
**A.** 1.2

**Q.** And the S/N ratio [12]?
**A.** 82.2
